Paper PMC6508567 (2018)

B1: serpin Z4 (natural protein)
chain: MATTLATDVRLSIAHQTRFALRLRSAISSNPERAAGNVAFSPLSLHVALSLITAGAAATRDQLVAILGDGGAGDAKELNALAEQVVQFVLANESSTGGPRIAFANGIFVDASLSLKPSFEELAVCQYKAKTQSVDFQHKTLEAVGQVNSWVEQVTTGLIKQILPPGSVDNTTKLILGNALYFKGAWDQKFDESNTKCDSFHLLDGSSIQTQFMSSTKKQYISSSDNLKVLKLPYAKGHDKRQFSMYILLPGAQDGLWSLAKRLSTEPEFIENHIPKQTVEVGRFQLPKFKISYQFEASSLLRALGLQLPFSEEADLSEMVDSSQGLEISHVFHKSFVEVNEEGTEAGAATVAMGVAMSMPLKVDLVDFVANHPFLFLIREDIAGVVVFVGHVTNPLISA
B2: β-amylase WT (enzyme)
chain: MEVNVKGNYVQVYVMLPLDAVSVNNRFEKGDELRAQLRKLVEAGVDGVMVDVWWGLVEGKGPKAYDWSAYKQLFELVQKAGLKLQAIMSFHQCGGNVGDAVNIPIPQWVRDVGTCDPDIFYTDGHGTRNIEYLTLGVDNQPLFHGRSAVQMYADYMTSFRENMKEFLDAGVIVDIEVGLGPAGEMRYPSYPQSHGWSFPGIGEFICYDKYLQADFKAAAAAVGHPEWEFPNDVGQYNDTPERTQFFRDNGTYLSEKGRFFLAWYSNNLIKHGDRILDEANKVFLGYKVQLAIKISGIHWWYKVPSHAAELTAGYYNLHDRDGYRTIARMLKRHRASINFTCAEMRDSEQSSQAMSAPEELVQQVLSAGWREGLNVACENALPRYDPTAYNTILRNARPHGINQSGPPEHKLFGFTYLRLSNQLVEGQNYANFKTFVDRMHANLPRDPYVDPMAPLPRSGPEISIEMILQAAQPKLQPFPFQEHTDLPVGPTGGMGGQAEGPTCGMGGQVKGPTGGMGGQAEDPTSGIGGELPATM

Tests used:
[1] = molecular target: B2; experiment: SPR; β-amylase immobilised
[2] = molecular target: B2; experiment: MST; β-amylase labelled, serpin Z4 titrated
[3] = molecular target: B1; experiment: SPR; serpin Z4 immobilised

koff [1] | Kd [2] | koff [3] | Binder
0.00263 s⁻¹ | 215 nM | – | B1
– | – | 0.00243 s⁻¹ | B2
